Target: recombinant human PGRN (human) (UniProt P28799)
Sequence of UniProt P28799 (P28799 18-593): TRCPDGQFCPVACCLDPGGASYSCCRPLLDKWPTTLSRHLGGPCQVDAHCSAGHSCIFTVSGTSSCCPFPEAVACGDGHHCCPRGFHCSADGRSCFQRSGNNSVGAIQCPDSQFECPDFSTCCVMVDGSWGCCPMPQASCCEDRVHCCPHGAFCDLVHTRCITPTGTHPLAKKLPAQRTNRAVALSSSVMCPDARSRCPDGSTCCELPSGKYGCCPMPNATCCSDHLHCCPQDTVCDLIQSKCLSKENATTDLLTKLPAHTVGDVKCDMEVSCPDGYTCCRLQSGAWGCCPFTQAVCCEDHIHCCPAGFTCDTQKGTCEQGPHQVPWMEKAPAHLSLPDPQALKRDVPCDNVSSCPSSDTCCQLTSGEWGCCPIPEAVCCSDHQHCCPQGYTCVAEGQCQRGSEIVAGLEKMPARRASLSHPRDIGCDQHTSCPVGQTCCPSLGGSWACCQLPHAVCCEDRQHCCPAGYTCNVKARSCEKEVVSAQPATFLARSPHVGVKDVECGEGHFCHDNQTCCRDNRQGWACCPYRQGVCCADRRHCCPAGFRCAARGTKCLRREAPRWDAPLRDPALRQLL

inhibition of TNF-induced NF-κB luciferase reporter activity in transfected human embryonic kidney cells by combined stimulation with YB-1 and PGRN: 65%
Substance: recombinant human Flag-YB-1 (from UniProt P67809 1-324) (natural protein)

— publication PMC7583764
